Test results from the DeepSol protein solubility set.

assay: soluble on expression in E. coli; label from the status in PepcDB or PDB records

Soluble on expression in E. coli, not soluble:
MKFIVKPHPEIFVKSESVRKRFTKILECNIRNIVKSRTESVAVFNRRDHIEVTSESNEYHAEVLEILTHTPGIHHVLEVKQSEFKDLHDIYEQVLELSRPLIENKTFVVRAKRRGKHDFTSIELERYVGGGLNQAVESARVKLHNPDVTVKVEVSGDKLNQVLARHKGLGGFPLGTQEDVLSLISGGFDSGVSSYLHIKRGSKVHYCFFNLGGPAHEIGVKQVSHYLWNKYGSSAKVRFISVDFEPVVAEILEKVDDGQMGVILKRMFMRAAGMIAEKFKIEALVTGEALGQVSSQTLTNLRHIDNVTDTLILRPLINWDKEDIINLAREIGTEDFAKTMPEYCGVISKKPTVKAVKEKLEAEEAKFDFSILEKVVYEARQMDIRDIAKESEQAAPEVEQVQAVEEHAVVLDIRSPDEEDDNPLEIAGVDVKHIPFYKLGTQFGDLDQSKTYLLYCDRGVMSRLQALYLQEQGFNNVKVYRP
MGSDKIHHHHHHMENQNHAFNYAYLLKQVKARVLLAQKKAIYTANEEMLSMYWDIGKLLSESQKQIGWGNNALEKLANDLKNDYPEMKGFSVRNCQFMIQFYNEYNQQLTNTKRAVSYLNNNEIVLPISKLGWSHNITLMQRTKDIKARYWYMIQCLKNGWSRDFLIEAIKQDYYHSHGALASNFDTTLPEIQAKQVKETLKDPYIFDMLTFTEEYDERDIELGLIKHIEKFLVEMGAGFAFMGRQYHIEVSEKDFYIDILMYNAFMHRYLVVELKRGEFQPEYIGKLNFYCSAVDDILCREGDNPTIGLLLCQNKDQIMAEYALRDVHKPIGISDYELGQALPKDIKSGLPSIEELENKLSRDLQDIDNKE
QSATARPMAIALGVAEPAPRGFLLIGANRVAREIGQALARYDRRVLMTDSNWEYISQVRMMGLDYYYGNPISSHADDNLNMIGIGQVVALTPDQHFNIMACMQFVDEFGEDKVHCLQKVKTNGNGSEKHSVAQEYHGKLLMGGNVSYTQLASLLSRGAEIKHTKLSENFTYQDYLEHHKTNLVIPLFNVEDKGKIQFCDDPDQFAPSTTSTIVSLILPESAQ
MGSDKIHHHHHHMKSFDEMTPKEIVQELDKYIVGQYEAKKAVAIAVRNRIRRQKLPEEWRKEVLPKNILMIGPTGVGKTEIARRLAQLSGSPFLKVEATRFTEVGYVGKNVDSMIRDLVEISVNMVKQEKIKEVERQAEELVEERILDALVPESKAMPVVTNPFINLITGGQQQQYTPEDRRRFRAKREEMREKLRKGELEDEEIEIELEETVSPFMGIFGPGMEDLGIEITNMFSGMLPKRKKKRKMKVSEARKVLLPLEAEKLIDMDKVVQEALDRAQNRGIIFIDEIDKIAGKESAVGPDVSRQGVQRDLLPIVEGTTIMTKYGPVRTDFILFIAAGAFHVSRPSDLIPELQGRFPIRVELSPLTEEDFVRILKEPENAIIKQYQALLSTEGVELVFTEDGIREMARIAYQLNQRLENIGARRLYTVAEKVLEEISFEAPDIPEKRVVVDAEYVRRRLEKIVQDEDLSAYIL
MGSDKIHHHHHHMPHHQPCPPASSLSAGPRGGVIMLILKNVTAVQLHPAKVQEGVDIAIENDVIVAIGDALTQRYPDASFKEMHGRIVMPGIVCSHNHFYSGLSRGIMANIAPCPDFISTLKNLWWRLDRALDEESLYYSGLICSLEAIKSGCTSVIDHHASPAYIGGSLSTLRDAFLKVGLRAMTCFETTDRNNGIKELQEGVEENIRFARLIDEAKKATSEPYLVEAHIGAHAPFTVPDAGLEMLREAVKATGRGLHIHAAEDLYDVSYSHHWYGKDLLARLAQFDLIDSKTLVAHGLYLSKDDITLLNQRDAFLVHNARSNMNNHVGYNHHLSDIRNLALGTDGIGSDMFEEMKFAFFKHRDAGGPLWPDSFAKALTNGNELMSRNFGAKFGLLEAGYKADLTICDYNSPTPLLADNIAGHIAFGMGSGSVHSVMVNGVMVYEDRQFNFDCDSIYAQARKAAASMWRRMDALA
MGSDKIHHHHHHMEQSATPACSICFPDSICRISPSSPLASPNGDEYHMKIALLCSGLGNVQRGHEIFVRDLFDMLKGSVDITLFKGGGEPAPNELVIDNVSRNAPSLQNIHLAVSPRWKVAMQEQERIRIETETFAHAALRPLLEGGYDIIHCLEQEVCNRLYGFRHLFAHTPKFLFSNGGAIPAAKLSNCDFVQEHTEYNLQHSAREKAFCIPHGVDIQRFNPSISSDFRARYGIAEDAFVVISVGIICYWHKRMDYLIKEVAQIPEAHLLIVGQECADTPAIKALGEKLMPGRITFTKMPHDELPQAYAAADVFALGSLFETFGIVYIEALAMGLPVFCTEHPNQRSIVREGVFLDIKQAGALRDALLKRDPAQMRYLRERGPQIARETYALEKLKSAYIEHYQRIAASEVSLPRYTFKTKLQDNVRSLYRRLSRG
MSSNNAGESDGTGPALPTVWPGNAYPLGATYDGAGTNFSLFSEIAEKVELCLIDEDGVESRIPLDEVDGYVWHAYLPNITPGQRYGFRVHGPFDPAAGHRCDPSKLLLDPYGKSFHGDFTFGQALYSYDVNAVDPDSTPPMVDSLGHTMTSVVINPFFDWAYDRSPRTPYHETVIYEAHVKGMTQTHPSIPPELRGTYAGLAHPVIIDHLNELNVTAVELMPVHQFLHDSRLLDLGLRNYWGYNTFGFFAPHHQYASTRQAGSAVAEFKTMVRSLHEAGIEVILDVVYNHTAEGNHLGPTINFRGIDNTAYYRLMDHDLRFYKDFTGTGNSLNARHPHTLQLIMDSLRYWVIEMHVDGFRFDLASTLARELHDVDRLSAFFDLVQQDPVVSQVKLIAEPWDVGEGGYQVGNFPGLWTEWNGKYRDTVRDYWRGEPATLGEFASRLTGSSDLYEATGRRPSASINFVTAHDGFTLNDLVSYNDKHNEANGENNRDGESYNRSWNCGVEGPTDDPDILALRARQMRNMWATLMVSQGTPMIAHGDEIGRTQYGNNNVYCQDSELSWMDWSLVDKNADLLAFARKATTLRKNHKVFRRRRFFEGEPIRSGDEVRDIAWLTPSGREMTHEDWGRGFDRCVAVFLNGEAITAPDARGERVVDDSFLLCFNAHDHDVEFVMPHDGYAQQWTGELDTNDPVGDIDLTVTATDTFSVPARSLLVLRKTL
MGSDKIHHHHHHMIEANQILAKMKNQKINYDKVLRKIISQWERDGERPKILLHSCCAPCSTYTLEFLTQYADIAIYFANPNIHPKSEYLRRAKVQEQFVNDFNNKTGASVKYIEAEYEPHKFMKMAKDKGLTEEPEGGLRCTACFEMRLEIVAKAALEHGYDYFGSAITLSPKKNAQLINELGMDVQNIYNVKYLPSDFKKNKGYERSIEMCNDYNIFRQCYCGCVFAAMKQGIDFKQINKDAQAFLQQF

Soluble on expression in E. coli, soluble:
MLGAIAYTGNKQSLLPELKSHFPKYNRFVDLFCGGLSVSLNVNGPVLANDIQEPIIEMYKRLINVSWDDVLKVIKQYKLSKTSKEEFLKLREDYNKTRDPLLLYVLHFHGFSNMIRINDKGNFTTPFGKRTINKNSEKRFNHFKQNCDKIIFSSLHFKDVKILDGDFVYVDPPYLITVADYNKFWSEDEEKDLLNLLDSLNDRGIKFGLSNVLEHHGKENTLLKEWSKKYNVKHLNKKYVFNIYHSKEKNGTDEVYIFN
SLLSETSTALGLQELSNITMPVIFNEPLSFLQRLTEYMEHTYLIHKASSLSDPVERMQCVAAFAVSAVASQWERTGKPFNPLLGETYELVRDDLGFRLISEQVSHHPPISAFHAEGLNNDFIFHGSIYPKLKFWGKSVEAEPKGTITLELLDHNEAYTWTNPTCCVHNIIVGKLWIEQYGNVEIINHKTGDKCVLNFKPCGLFGKELHKVEGYIQDKSKKKLCALYGKWTECLYSVDPATFDAYKKNDKKNTEEKKNSKQTSSSEESDEMPVPDSESVFIIPGSVLLWRIAPRPPNSAQMYNFTSFAMVLNEVDKEMESVIPKTDCRLRPDIRAMENGEIDLASEEKKRLEEKQRAARKNRSKSEEDWKTRWFHQGPNPYSGAQDWIYSGSYWDRNYFNLPDIY
MIAAEAFAPHAALAQDLIPHAADTGDGSHDLAHIHRVFRNAMRIHAGEGGDGNVLAASVLLHDCVAVEKNSPLRAQASRLAAEKASGILAGLGWQKQDIDAAAHAITTHSFSANIEPQTLEAKILQDADRLDAIGMVGAARCFYIAGRMGSALYDPADPLAKERPLDDRAFAIDHFETKLFKLADGFRTETGRQMAKARHERLKQVLDLFLDEILEHHHHHH
MSLGSQTDGSPAGGWPALNAVNKHLLHQHVLVKGNRTLLSMNKPGGFDCPSCSWPDPKKPHTFEYCENGAKALAWESTKKRVTPEFFARHTVSELATWSDHDLEKQGRIAEPMRYDAASDKYLPVTWDEAFAEIGEELRQLSDPWKLELYTSGRTSNEAAFLYQLFGRLYGMANFPDCSNMCHETTTVALPESIGVGKGTTTLEDFENADAIFIIGQNPGSNSPRMMSELHAAAKRGASIISFNPLREKALVRFASPQDPRDMLSLHGVEISSQYHQVRIGGDMIALQGVCKAVIEADDVARREHLPRVLDVAFIEEHTHGFEQYADYCRQLPWDLIESHSGLTRQAIEDVAAVYRRSERVICCWGMGVTQHKRGGDAVQQIINLLLLRGNIGKLGAGACPVRGHSNVQGDRTMGIYEKAGEPFLASMSKVFGFEASRRKGHAVAETCEALLRGEVEALISMGGNFFRAIPDIDAICPTVSRLKMTVLVNTKLNRSATVHGQKAFLLPCVARSERDLQNGVAQTITVEDSMSIVHGSTGMLEPASKHLISEVAIIAGIAKATLAPNPNVDWDSYVGDYARIRDKIEEVLPEQFYDFNRRILEPGGFRLPNAASERKWDTESGKANFLFTEGIYDEDDTPPGAAHLQLMTIRSHDQFNTTVYSNDDRYRDIFGDRMVVMLNPQDIERLGLKAGDYIEFQTALDLTTPRRAPGFKVIAYDVPPGCCAAYYPETNGLLPLANRDSRSNTPAAKSIPVNLVRMSPEGAQVALEREGHHHHHH
MNLDDKSLFLDAMEDVQPLKRATDVHWHPTRNQRAPQRIDTLQLDNFLTTGFLDIIPLSQPLEFRREGLQHGVLDKLRSGKYPQQASLNLLRQPVEECRKMVFSFIQQALADGLRNVLIIHGKGRDDKSHANIVRSYVARWLTEFDDVQAYCTALPHHGGSGACYVALRKTAQAKQENWERHAKRSR
MLKGKKILLCVTGGIAVFKAAALTSKLTQAGAIVKVMMSESAVKFVTPLTFQALSRHDVYTDTFDEKDSAVIAHIDLADWADVVLVAPATANCIGKLANGIADDMITTTLLATTAPVWIAPAMNVHMYENKIVQKNMMTLKTLGYTFIEPGEGFLACGYVAKGRLEEPEAIIARLEEAFSEQKPLQGKRILITAGPTREKIDPVRFMTNFSSGKMGYAIAEVAVNLGAEVILVSGPTALNPPLHVTTVQVESAQDMLEAVIQHYQNVDVVIKTAAVADYRPKYVHDNKMKKKNGDAVIELERTVDILKTLGEMKDKQLLIGFAAETTNVEEYATKKLREKNANMIVANDVKAQGAGFGTDTNIVTMYRKDGEVIELPLLTKKEVAREILKQIEMMLEDDRL
SNAMKLALITDTSAYLPEAIENHEDVYVLDIPIIIDGKTYIEGQNLTLDQYYDKLAASKELPKTSQPSLAELDDLLCQLEKEGYTHVLGLFIAAGISGFWQNIQFLIEEHPNLTIAFPDTKITSAPQGNLVRNALMCSREGMDFDVIVNKIQSQIEKIEGFIVVNDLNHLVKGGRLSNGSAIIGNLLSIKPVLHFNEEGKIVVYEKVRTEKKALKRLAEIVKEMTADGEYDIAIIHSRAQDKAEQLYNLLAKAGLKDDLEIVSFGGVIATHLGEGAVAFGITPKN
GPLGSSIMKILLIGDSGVGKSCLLVRFVEDKFNPSFITTIGIDFKIKTVDINGKKVKLQLWDTAGQERFRTITTAYYRGAMGIILVYDVTDERTFTNIKQWFKTVNEHANDEAQLLLVGNKSDMETRVVTADQGEALAKELGIPFIESSAKNDDNVNEIFFTLAKLIQEKIDSN
